What was measured:
Dcp2 [1] = biological target: T1, Dcp2 (Homo sapiens, UniProt Q8IU60 1-420); test: MST; no Mg2+; RNA pre-incubated with 80 nM eIF4E; Hill coefficient 1.99 ± 0.83; MST: 100 mM NaCl, 50 mM Tris-Cl pH 7.9, 1 mM DTT, 100 ug/ml BSA, 37 C (10 mM MgCl2 only when stated), 4 nM RNA; EMSA: same buffer plus 5% glycerol, no Mg2+, 24; settings: protein: recombinant; tags: His6-protein G-TEV tag, removed by TEV; label: 3' Cy5; single strand
Dcp2 [2] = biological target: T1, Dcp2; test: MST; no Mg2+; Hill coefficient 1.56 ± 0.49; MST: 100 mM NaCl, 50 mM Tris-Cl pH 7.9, 1 mM DTT, 100 ug/ml BSA, 37 C (10 mM MgCl2 only when stated), 4 nM RNA; EMSA: same buffer plus 5% glycerol, no Mg2+, 24; settings: protein: recombinant; tags: His6-protein G-TEV tag, removed by TEV; label: 3' Cy5; single strand
eIF4E [3] = biological target: T2, eIF4E (Homo sapiens, UniProt P06730 1-217); test: EMSA; 10 mM MgOAc; 2.5 uM eIF4E; Cy5 label implied; MST: 100 mM NaCl, 50 mM Tris-Cl pH 7.9, 1 mM DTT, 100 ug/ml BSA, 37 C (10 mM MgCl2 only when stated), 4 nM RNA; EMSA: same buffer plus 5% glycerol, no Mg2+, 24; settings: protein: recombinant; tags: His6-protein G-TEV tag, removed by TEV; label: 3' Cy5; single strand
Dcp2 E147Q,E148Q = Dcp2 E147Q,E148Q (Homo sapiens, UniProt Q8IU60 1-420, E147Q;E148Q); test: MST; no Mg2+ (implied); MST: 100 mM NaCl, 50 mM Tris-Cl pH 7.9, 1 mM DTT, 100 ug/ml BSA, 37 C (10 mM MgCl2 only when stated), 4 nM RNA; EMSA: same buffer plus 5% glycerol, no Mg2+, 24; settings: protein: recombinant; tags: His6-protein G-TEV tag, removed by TEV; label: 3' Cy5; single strand
eIF4E [4] = biological target: T2, eIF4E; test: EMSA; 10 mM MgOAc; 2.5 uM eIF4E; MST: 100 mM NaCl, 50 mM Tris-Cl pH 7.9, 1 mM DTT, 100 ug/ml BSA, 37 C (10 mM MgCl2 only when stated), 4 nM RNA; EMSA: same buffer plus 5% glycerol, no Mg2+, 24; settings: protein: recombinant; tags: His6-protein G-TEV tag, removed by TEV; label: 3' Cy5 (implied); single strand
eIF4E [5] = biological target: T2, eIF4E; test: EMSA; no Mg2+; 625 nM eIF4E; MST: 100 mM NaCl, 50 mM Tris-Cl pH 7.9, 1 mM DTT, 100 ug/ml BSA, 37 C (10 mM MgCl2 only when stated), 4 nM RNA; EMSA: same buffer plus 5% glycerol, no Mg2+, 24; settings: protein: recombinant; tags: His6-protein G-TEV tag, removed by TEV; single strand
Dcp2 [6] = biological target: T1, Dcp2; test: MST; no Mg2+; Hill coefficient 1.89 ± 0.78; MST: 100 mM NaCl, 50 mM Tris-Cl pH 7.9, 1 mM DTT, 100 ug/ml BSA, 37 C (10 mM MgCl2 only when stated), 4 nM RNA; EMSA: same buffer plus 5% glycerol, no Mg2+, 24; settings: protein: recombinant; tags: His6-protein G-TEV tag, removed by TEV; label: 3' Cy5; single strand
Dcp2 [7] = biological target: T1, Dcp2; test: MST; no Mg2+; Hill coefficient 1.22 ± 0.39; MST: 100 mM NaCl, 50 mM Tris-Cl pH 7.9, 1 mM DTT, 100 ug/ml BSA, 37 C (10 mM MgCl2 only when stated), 4 nM RNA; EMSA: same buffer plus 5% glycerol, no Mg2+, 24; settings: protein: recombinant; tags: His6-protein G-TEV tag, removed by TEV; label: 3' Cy5; single strand

T2 sequence (P06730 whole entry): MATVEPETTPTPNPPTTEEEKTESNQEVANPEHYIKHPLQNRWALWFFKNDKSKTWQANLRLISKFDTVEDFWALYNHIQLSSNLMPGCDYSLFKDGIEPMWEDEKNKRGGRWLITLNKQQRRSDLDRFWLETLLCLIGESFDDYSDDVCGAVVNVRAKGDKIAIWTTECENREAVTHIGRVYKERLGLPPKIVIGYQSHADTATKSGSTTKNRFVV

B1: m7G-capped 43-mer RNA, 3' Cy5 (ssRNA)
RNA: AGGAAAUAAGAGAGAAAAGAAGAGUAAGAAGAAAUAUAAGAGC
modifications: 5' m7GpppAm cap (2'-O-methyl on first A)
For B1, the “apparent K (half saturation)” value (Dcp2 [1]) was 72 ± 20 nM, the “apparent K (half saturation)” value (Dcp2 [2]) was 157 ± 26 nM and the binding result (eIF4E [3]) was “binds”. B1: no binding (Dcp2 E147Q,E148Q).

B2: A-capped 43-mer RNA (ssRNA)
RNA: AGGAAAUAAGAGAGAAAAGAAGAGUAAGAAGAAAUAUAAGAGC
modifications: 5' ApppAm cap (2'-O-methyl on first A)
B2: no binding (eIF4E [4]).

B3: m7G-capped 43-mer RNA, 3' unlabeled (ssRNA)
RNA: AGGAAAUAAGAGAGAAAAGAAGAGUAAGAAGAAAUAUAAGAGC
modifications: 5' m7GpppAm cap (2'-O-methyl on first A)
B3: binds (eIF4E [5]).

B4: 5' monophosphate 43-mer RNA (ssRNA)
RNA: AGGAAAUAAGAGAGAAAAGAAGAGUAAGAAGAAAUAUAAGAGC
modifications: 5' monophosphate
With B4 the “apparent K (half saturation)” value (Dcp2 [6]) was 96 ± 16 nM.

B5: 5' triphosphate 43-mer RNA (ssRNA)
RNA: AGGAAAUAAGAGAGAAAAGAAGAGUAAGAAGAAAUAUAAGAGC
modifications: 5' triphosphate
B5 was tested, and the “apparent K (half saturation)” value (Dcp2 [7]) was 151 ± 29 nM and the binding result (eIF4E [3]) was “no binding”.
